# System: Escherichia coli TOP10
# Assay: shrunken log2 fold change of peptide-encoding DNA abundance (4.5 h post-induction vs induction); higher = less antimicrobial activity (less host growth inhibition)
# Settings: time post-induction: 4.5 h; library: site-saturation at positions 5, 18, 19, 20
# 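Note: peptides expressed intracellularly from a pBAD plasmid library in pooled LB shake-flask culture, induced with 0.3% L-arabinose, DNA abundance read by NGS, three biological replicates, DESeq2 with apeglm shrinkage.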
row,Sequence,shrunken log2 fold change
1,RRIRGRPPRLPRPRPRPRFAPRP,0.99
2,RRIRIRPPRLPRPRPRPQRAPRP,-0.249
3,RRIRSRPPRLPRPRPRPCSMPRP,-0.441
4,RRIRLRPPRLPRPRPRPCIAPRP,-0.185
5,RRIRARPPRLPRPRPRPINIPRP,-0.334
6,RRIRSRPPRLPRPRPRPGNSPRP,0.0554
7,RRIRFRPPRLPRPRPRPTNGPRP,-0.137
8,RRIRLRPPRLPRPRPRPLMFPRP,-0.215
9,RRIRKRPPRLPRPRPRPDWGPRP,2.83
10,RRIRCRPPRLPRPRPRPCGMPRP,0.119
11,RRIRVRPPRLPRPRPRPWVSPRP,-0.278
12,RRIRSRPPRLPRPRPRPTSQPRP,0.0259
13,RRIRRRPPRLPRPRPRPKYKPRP,-0.148
14,RRIRVRPPRLPRPRPRPWMFPRP,-0.673
15,RRIRSRPPRLPRPRPRPLRNPRP,1.38
16,RRIRKRPPRLPRPRPRPDGPPRP,0.022
17,RRIRTRPPRLPRPRPRPENMPRP,-0.468
18,RRIRSRPPRLPRPRPRPEDWPRP,0.802
19,RRIRQRPPRLPRPRPRPINEPRP,0.0162
20,RRIRYRPPRLPRPRPRPHMHPRP,-0.988
21,RRIRKRPPRLPRPRPRPKVGPRP,0.00386
22,RRIRIRPPRLPRPRPRPEKEPRP,-0.00237
23,RRIRLRPPRLPRPRPRPGWIPRP,0.0964
24,RRIRLRPPRLPRPRPRPWMRPRP,0.892
25,RRIRCRPPRLPRPRPRPYSLPRP,-0.258

row,Sequence,shrunken log2 fold change
1,RRIRTRPPRLPRPRPRPLEAPRP,0.115
2,RRIRPRPPRLPRPRPRPNQMPRP,-0.129
3,RRIRARPPRLPRPRPRPQDMPRP,-0.322
4,RRIRHRPPRLPRPRPRPIKAPRP,-0.157
5,RRIRGRPPRLPRPRPRPCRLPRP,0.123
6,RRIRLRPPRLPRPRPRPFNLPRP,-0.596
7,RRIRLRPPRLPRPRPRPDNAPRP,0.0803
8,RRIRVRPPRLPRPRPRPFNWPRP,-0.498
9,RRIRERPPRLPRPRPRPVECPRP,-0.152
10,RRIRLRPPRLPRPRPRPGWDPRP,0.507
11,RRIRQRPPRLPRPRPRPPWIPRP,-0.145
12,RRIRHRPPRLPRPRPRPGKRPRP,-0.0157
13,RRIRERPPRLPRPRPRPPPHPRP,0.619
14,RRIRNRPPRLPRPRPRPPTAPRP,0.295
15,RRIRPRPPRLPRPRPRPCVHPRP,-0.434
16,RRIRFRPPRLPRPRPRPTNRPRP,-0.346
17,RRIRPRPPRLPRPRPRPEFVPRP,-0.0384
18,RRIRARPPRLPRPRPRPMNYPRP,-0.182
19,RRIRERPPRLPRPRPRPSAKPRP,0.0244
20,RRIRQRPPRLPRPRPRPQPIPRP,0.136
21,RRIRERPPRLPRPRPRPGHHPRP,-0.261
22,RRIRRRPPRLPRPRPRPTKVPRP,0.118
23,RRIRDRPPRLPRPRPRPYANPRP,-0.209
24,RRIRPRPPRLPRPRPRPPIYPRP,0.0772
25,RRIRGRPPRLPRPRPRPFQMPRP,0.0308

row,Sequence,shrunken log2 fold change
1,RRIRRRPPRLPRPRPRPTAHPRP,1.51
2,RRIRPRPPRLPRPRPRPPYVPRP,-0.0964
3,RRIRARPPRLPRPRPRPSWEPRP,0.162
4,RRIRDRPPRLPRPRPRPEEDPRP,0.012
5,RRIRGRPPRLPRPRPRPIWMPRP,0.245
6,RRIRLRPPRLPRPRPRPAWCPRP,0.094
7,RRIRKRPPRLPRPRPRPIGPPRP,0.0335
8,RRIRKRPPRLPRPRPRPSNPPRP,-0.0952
9,RRIRTRPPRLPRPRPRPSQQPRP,0.117
10,RRIRYRPPRLPRPRPRPTKFPRP,-0.316
11,RRIRERPPRLPRPRPRPFEKPRP,0.00177
12,RRIRQRPPRLPRPRPRPIRTPRP,-0.0597
13,RRIRIRPPRLPRPRPRPTVDPRP,0.11
14,RRIRCRPPRLPRPRPRPICMPRP,-0.491
15,RRIRDRPPRLPRPRPRPDLDPRP,0.632
16,RRIRTRPPRLPRPRPRPSFKPRP,-0.465
17,RRIRLRPPRLPRPRPRPRHHPRP,-0.0411
18,RRIRVRPPRLPRPRPRPIYNPRP,-0.675
19,RRIRLRPPRLPRPRPRPYAVPRP,0.00157
20,RRIRGRPPRLPRPRPRPYMHPRP,-0.355
21,RRIRCRPPRLPRPRPRPHCEPRP,-0.226
22,RRIRSRPPRLPRPRPRPLHIPRP,-0.0437
23,RRIRFRPPRLPRPRPRPDDIPRP,-0.0253
24,RRIRYRPPRLPRPRPRPCMIPRP,-0.731
25,RRIRDRPPRLPRPRPRPHGWPRP,0.861

row,Sequence,shrunken log2 fold change
1,RRIRYRPPRLPRPRPRPFIRPRP,-0.942
2,RRIRFRPPRLPRPRPRPWLFPRP,-0.0194
3,RRIRLRPPRLPRPRPRPPEYPRP,-0.26
4,RRIRHRPPRLPRPRPRPDQIPRP,-0.0166
5,RRIRDRPPRLPRPRPRPSFVPRP,-0.0915
6,RRIRARPPRLPRPRPRPDYKPRP,-0.0382
7,RRIRQRPPRLPRPRPRPSKSPRP,-0.332
8,RRIRQRPPRLPRPRPRPRFSPRP,0.0453
9,RRIRLRPPRLPRPRPRPMENPRP,-0.105
10,RRIRKRPPRLPRPRPRPCRGPRP,-0.115
11,RRIRERPPRLPRPRPRPMEEPRP,0.161
12,RRIRRRPPRLPRPRPRPFLRPRP,0.382
13,RRIRRRPPRLPRPRPRPVAPPRP,0.436
14,RRIRRRPPRLPRPRPRPWLWPRP,0.0836
15,RRIRQRPPRLPRPRPRPEDYPRP,-0.0734
16,RRIRQRPPRLPRPRPRPQSAPRP,-0.08
17,RRIRTRPPRLPRPRPRPHNDPRP,-1.58
18,RRIRWRPPRLPRPRPRPCLKPRP,0.0308
19,RRIRLRPPRLPRPRPRPTAAPRP,0.897
20,RRIRVRPPRLPRPRPRPAMIPRP,-0.07
21,RRIRFRPPRLPRPRPRPIKHPRP,-0.485
22,RRIRFRPPRLPRPRPRPYLGPRP,-0.11
23,RRIRTRPPRLPRPRPRPRIPPRP,0.00212
24,RRIRPRPPRLPRPRPRPHSVPRP,-0.213
25,RRIRRRPPRLPRPRPRPADSPRP,-0.0331

row,Sequence,shrunken log2 fold change
1,RRIRCRPPRLPRPRPRPGVMPRP,0.0691
2,RRIRMRPPRLPRPRPRPFEKPRP,0.00408
3,RRIRSRPPRLPRPRPRPYTFPRP,-1.01
4,RRIRIRPPRLPRPRPRPMWSPRP,0.045
5,RRIRERPPRLPRPRPRPHLMPRP,1.19
6,RRIRKRPPRLPRPRPRPWCDPRP,-0.377
7,RRIRFRPPRLPRPRPRPPIVPRP,-0.126
8,RRIRYRPPRLPRPRPRPIIFPRP,0.0131
9,RRIRKRPPRLPRPRPRPLCCPRP,0.104
10,RRIRLRPPRLPRPRPRPFRYPRP,-0.021
11,RRIRTRPPRLPRPRPRPYARPRP,-0.000715
12,RRIRIRPPRLPRPRPRPNLSPRP,-0.0917
13,RRIRHRPPRLPRPRPRPPEMPRP,0.484
14,RRIRYRPPRLPRPRPRPCGQPRP,-0.0335
15,RRIRQRPPRLPRPRPRPMCNPRP,-0.389
16,RRIRVRPPRLPRPRPRPDQSPRP,-0.053
17,RRIRVRPPRLPRPRPRPDQAPRP,-0.038
18,RRIRHRPPRLPRPRPRPKYQPRP,-0.145
19,RRIRVRPPRLPRPRPRPSTFPRP,-0.479
20,RRIRRRPPRLPRPRPRPSWKPRP,0.16
21,RRIRRRPPRLPRPRPRPRIHPRP,-0.113
22,RRIRSRPPRLPRPRPRPEERPRP,0.826
23,RRIRCRPPRLPRPRPRPVMAPRP,-0.354
24,RRIRVRPPRLPRPRPRPNFNPRP,-0.143
25,RRIRERPPRLPRPRPRPPKLPRP,-0.0377

row,Sequence,shrunken log2 fold change
1,RRIRPRPPRLPRPRPRPCLDPRP,-0.251
2,RRIRFRPPRLPRPRPRPEYLPRP,-0.203
3,RRIRQRPPRLPRPRPRPAVNPRP,-0.0181
4,RRIRGRPPRLPRPRPRPMSPPRP,0.00263
5,RRIRGRPPRLPRPRPRPKPWPRP,0.914
6,RRIRNRPPRLPRPRPRPKYDPRP,-0.624
7,RRIRLRPPRLPRPRPRPYAYPRP,-0.0124
8,RRIRQRPPRLPRPRPRPTWPPRP,0.268
9,RRIRWRPPRLPRPRPRPCMQPRP,0.0574
10,RRIRNRPPRLPRPRPRPWRPPRP,0.337
11,RRIRVRPPRLPRPRPRPDGNPRP,-0.189
12,RRIRARPPRLPRPRPRPYTDPRP,-0.785
13,RRIRKRPPRLPRPRPRPVFTPRP,-0.0937
14,RRIRWRPPRLPRPRPRPQSQPRP,0.00151
15,RRIRTRPPRLPRPRPRPDNNPRP,-0.48
16,RRIRRRPPRLPRPRPRPIMVPRP,-0.371
17,RRIRSRPPRLPRPRPRPIFWPRP,0.403
18,RRIRARPPRLPRPRPRPTIEPRP,0.225
19,RRIRRRPPRLPRPRPRPDETPRP,0.745
20,RRIRRRPPRLPRPRPRPTAEPRP,-0.0162
21,RRIRWRPPRLPRPRPRPPCMPRP,0.00553
22,RRIRIRPPRLPRPRPRPKYCPRP,0.00104
23,RRIRLRPPRLPRPRPRPNAFPRP,0.00952
24,RRIRLRPPRLPRPRPRPHIMPRP,-0.531
25,RRIRRRPPRLPRPRPRPQYPPRP,-0.444
